Five molecules from patent CN115125236A (YEASEN BIOLOGICAL TECH SHANGHAI CO LTD, dated 2022) can be followed below.

The chains are these.
T1: Benzonase (粘质沙雷氏菌 (Serratia marcescens), UniProt P13717 22-266)
T1 construct: Coated on the plate in the ELISA and used as the sample in the sandwich ELISA; also called 全能核酸酶; Benzonase蛋白
T1 sequence (looked up): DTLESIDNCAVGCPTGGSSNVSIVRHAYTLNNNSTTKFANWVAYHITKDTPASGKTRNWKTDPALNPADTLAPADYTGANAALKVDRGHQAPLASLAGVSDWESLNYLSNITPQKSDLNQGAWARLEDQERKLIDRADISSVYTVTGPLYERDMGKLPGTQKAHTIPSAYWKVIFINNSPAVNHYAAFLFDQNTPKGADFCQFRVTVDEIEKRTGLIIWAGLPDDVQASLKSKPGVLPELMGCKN

B1: Benzonase单克隆抗体scFv4 (scFv)
scFv: QLMESGGGLVQPGASLTLTCTASGFSFSSNYWICWVRQAPGKGLEWIGCIYTGTSGTTYYASWAKGRFTISETSSTTVTLQMTSLTAADTATYFCSKNTYGYALAARLDLWGQGTLVTISSGGGGSGGGGSGGGGSDMTQTPASVEVAVGGTVTIKCQASQSIGSDLAWYQQKLGQPPKLLIYYASTLESGAPARFSGSGSGTEYTLTITDVQCDDAATYYCAGDYSSGNDNGFGGGTEVVVKA
B2: Benzonase单克隆抗体scFv1 (scFv)
scFv: QLVESGGGLVTPGTPLTLTCTASGFSLSSYWMSWVRQAPGKGLEWIGVISSSGSTDYASWAKGRFTISKTSTTVDLKITSLTTEDTAIYFCARYSSDWNAYDLWGQGTLVTISSGGGGSGGGGSGGGGSVLTQTPSPVSAAVGGTVTISCQASQSVYGNNYLSWFQQKPGQPPKLLIYQASTLASGVPSRFSGSGSGTQFSLTISGVQCDDAATYYCAGWSGSGTDAVAFGGGTELEILGRSGP
B3: Benzonase单克隆抗体scFv3 (scFv)
scFv: QLVESGGRLVTPGTPLTLTCTASGFALSGYYMTWVRQAPGKGLEWIGITHPSGSTYYASWVKGRFTISKASTTVDLRITSPTTEDTATYFCARVWTHYSSGGGDLWGPGTLVTISSGGGGSGGGGSGGGGSDLTQTPSSVSAAVGGTVTINCQSSESVYKNNDLSWYQQKPGQPPKLLISAASTLASGVPSRFKGSGSGTQFTLTISGVQCDDAATYYCQQGYSGDNVVNTFGGGTEVVVK
B4: Benzonase单克隆抗体scFv6 (scFv)
scFv: QLVESGGDLVKPGASLTLTCTASGFTLSSYWMCWVRQAPGKGLEWIGCIDTGSSDSTYYANWAKGRFTISKASSTTVTLQMTSVTPADTATYFCARHLRYSTNNNDWDLWGPGTLVTVSSGGGGSGGGGSGGGGSDLTQTPASVEAAVGDTVTIKCQASQSIYNYLAWYQQKPGQPPKVLIYAASNLASGVPSRFSGSGSGTQFTLTISGVQCDDAATYYCAGAYSTYGDNGFGGGTEVVVKA
B5: Benzonase单克隆抗体scFv5 (scFv)
scFv: QLMESGGGLVTPGGTLTLTCTASGFSLSNYWMSWVRQAPGKGLEWIGIISNYGSTYYASWAKGRFTISKTSTTVDLRITSPTIEDTATYFCAREFAGVFNLWGPGTLVTVSSGGGGSGGGGSGGGGSDMTQTPASVSEPVGGTVTINCQASQSVYNNKNLAWYQQKPGQPPKVLIYKASTLASGVSSRFKGSGSGTEFTLTISDLECADAATYYCQQGHDTNVQNLFGGGTEVVVKAAAGA

The first experiment has as its target T1, Benzonase. Briefly: sandwich ELISA, biotin-scFv4 as detection on Benzonase captured by scFv3, HRP-streptavidin.
Regarding B1, the binding result is “binds”.

In another experiment the target is T2, 牛血清白蛋白 (牛 (bovine, by its name), UniProt P02769 25-607).
T2 construct: also called BSA
T2 sequence (P02769 25-607 limits assumed): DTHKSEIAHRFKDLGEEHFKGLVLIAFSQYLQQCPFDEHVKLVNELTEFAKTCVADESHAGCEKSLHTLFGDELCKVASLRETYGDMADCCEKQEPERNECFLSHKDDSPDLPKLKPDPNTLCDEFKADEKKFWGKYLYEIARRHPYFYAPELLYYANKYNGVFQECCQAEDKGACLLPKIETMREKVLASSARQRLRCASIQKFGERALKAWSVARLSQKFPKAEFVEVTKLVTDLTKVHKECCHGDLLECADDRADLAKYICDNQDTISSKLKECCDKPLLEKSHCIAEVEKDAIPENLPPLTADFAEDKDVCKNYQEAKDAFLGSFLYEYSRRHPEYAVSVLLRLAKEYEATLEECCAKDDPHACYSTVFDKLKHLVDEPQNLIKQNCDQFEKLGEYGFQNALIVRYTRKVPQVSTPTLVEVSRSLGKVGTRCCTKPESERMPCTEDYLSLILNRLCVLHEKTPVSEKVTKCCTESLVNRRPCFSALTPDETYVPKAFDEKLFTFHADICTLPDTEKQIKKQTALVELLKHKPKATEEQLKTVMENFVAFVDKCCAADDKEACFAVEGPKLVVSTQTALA
As to the kind of experiment: ELISA, BSA coated and blocked as control, HRP anti-flag-tag detection.
Regarding B2, the binding result is on record as “no binding (tested: 1μg/ml后二倍梯度稀释)”.

In the case of B1, the binding result is “no binding (tested: 1μg/ml后二倍梯度稀释)”.

For the molecule B3, the binding result is listed as “no binding (tested: 1μg/ml后二倍梯度稀释)”.

Turning to B4, the binding result is listed as “no binding (tested: 1μg/ml后二倍梯度稀释)”.

Take B5: the binding result is on record as “no binding (tested: 1μg/ml后二倍梯度稀释)”.

The next experiment has as its target T1, Benzonase. Briefly: ELISA, Benzonase coated, scFv from 1 μg/ml in twofold dilutions, HRP anti-flag-tag detection.
Regarding B2, the binding result was “binds”.

As for B3, the binding result was “binds”.

Turning to B4, the binding result is listed as “binds”.

Consider B5, for which the binding result is given as “binds”.
